Assay results reported in the nanobody polyreactivity screen of Harvey et al. (2022).

test: yeast display, Sf9 membrane polyspecificity reagent, FACS + sequencing; frameworks hold sequencing errors
How it was run: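 After 36–48 hours of galactose induction, yeast (Saccharomyces cerevisiae BJ5465) displaying a synthetic nanobody library were stained at 4 °C for 1 hour with 10% biotinylated, detergent-solubilized Sf9 membrane reagent. Streptavidin microbeads enriched the stained cells before FACS sorting into low and high (top ~1%) gates on anti-HA and streptavidin fluorescence. Each clone's polyreactivity label reflects its gate of origin.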

Row | Sequence | polyreactivity (PSR sort gate)
1 | QVHLVESGGGLVQAGGSLRLSSAASGITFYGNAMGWYRQAPGKERELVATISSGGSTNYADSVKGRFTISRDNAKNTVYLQMHSLKPEDTAVYYCNAAPDVNRDYEGSGDYWGQGTQVTVSS | low polyreactivity
2 | QVHLVESGGGLVQAGGSLRLSSAASGRIFSFNAMGWYREAPGKERELVAAISWSNGSTFYADSVKGRFTISRDNAKNTVYLQMNSLKPEETAVYYCATGFPHPKRNVNRRNYWGQGTQVTVSS | high polyreactivity
3 | QVHLVESGGGLVQAGGSLRLSSAASGRTLSRYAMGWYRQAPGKERELGASISWSGGRTYYADSVKGRFTISRDNAKNTVYLQMNSLKPEDTAVYYCAAVYVTAPFDYWGQGTQVTVSS | low polyreactivity
4 | QVHLVESGGGLVQAGGSLRLSSAASGSIFGANAMGWYRQAPGKERELVAAITSGSGTNYADSVKGRFTISRDNSKNTVYLQMNSLKPEDTAVYSCAARHPYPIYDYWGQGTQVTVSS | low polyreactivity
5 | QVHLVESGGGLVQAGGSLRLSSAATGSIIYWYDMGWYRQAPGKERELVAAITNDGDSTYYADSVKGRFTISRDNAKNTVYLQMNSLKPEDTAVYYCAADVLFYYEYGSWGQGTQVTVSS | low polyreactivity
6 | QVHLVESGGGLVQAGGSLRLSSADSGRIFTTYVMGWYRQAPGQESELVAAISARGSTYYADSVKGRFTISRDNAKNTVYLQMNSLKPEDNAVYYCAAGHRLPVYYVYPRATYNYWRQGTQVTVSS | low polyreactivity
7 | QVHLVESGGGLVQAGGSLRLSSADSGRTFAYNAMRWYRPAPGKERELVAAITWSGDSTYYADSVKGRFTISRDNAKNTVYFQMNSLKPEDTEVYYCAADYFGGPSYEFDYWGQGTQVTVSS | low polyreactivity
8 | QVHLVESGGGLVQAGGSLRLTCAASGFTFSDNAMGWYRQAPGKERELVAAISRSGGRTYYADSVKGRFTISRDNAKKTVYLQMNSLKPEDTAVYYCAAYQYGMDYWGQGTQVTVSS | high polyreactivity
9 | QVHLVESGGGLVQAGGSLRLTCAASGSTFGTYAMGWYRPAPGKERELVATIAIGGITYYADSVKGRFTISRDNAKYTVYLQMNSLKPEDTAVDYCAKDVTAPTSRSDPSGDDYWGQGTQVTVSS | low polyreactivity
10 | QVHLVESGGGLVQAGGSLRVSCAASGSIFPYAMGCYRQAPGKEREFVAAITSGVRTNYADSVKGRFTISRDNAKNNVYLQINSLKPEDTAVYYCAARYFPHYYSKYDYWGPGTQVTVSS | low polyreactivity
11 | QVHLVESGGGLVQAGGSLSFSCAASGSNFTFNTMVWYRQAPGKEREKVATISSGGRTYYADSVKGRFTISRDNAKNTVYLQMNSLKPEDTPVFYCNKGYYGYTYVEYNYWGQGTPVTVSS | low polyreactivity
12 | QVHLVESGGGLVQAGRSLPLSCAASGRIFIYNAMGWYRQAPGKERELVAAINRSGVSTHYADSVKGRFTISRDNAKNTVYLQMNSLKPEDTAVYYCARTVYGARSYDYWGQGTQVTVSS | low polyreactivity
13 | QVHLVESGGGLVQAGRSLRLSCAASGSIFYVYAMGWYRQAPGKETQLVATISTGGSTYYADSVKGRFTISRDNAKNTVYLQMNSLKPEDTAVYYCNAQFTPRYWGGYDSWGQGNQVTVSS | low polyreactivity
14 | QVHLVESGGGLVQAGVSLRLSCAASGSTFGHNAMVWYRQAPGKERELVAAISSIGGSTNYADSVKGRFTISRDNAKNTVYFQMNSLKPEDTAVYYCNAGPGLRYVSPYDYWGQGTQVTVSS | low polyreactivity
15 | QVHLVESGGGLVQARGSLRLSCAASGRIFRYYVMGWYRQAPGIERELVAAITSGTSTNYADSVKGRFTISRDNAKNTVYLQMTSLKPEDTAVYYCAVRSPRGGRTRFNSNYWGQGTQVTVSS | high polyreactivity
16 | QVHLVESGGGLVQARGSLRLSCAAYGRIFGRNAMGWYRQAPGKERELVAVITFSGGDTFYADSVKGRFTISRDNAKNTVYLQMNSLKPEDTAVYYCAKSQGFETYRNVSIFGYWGQGTQVTVSS | low polyreactivity
17 | QVHLVESGGSLVQAGGSLRLSCAASGFIFSWYAMGWYRQAPGKERELLAAISHEGGYTYYADSVKGRFTISRDNSKNNVYLQMYSLKPEDTAVYYCAPAFRAAGRSVRYYWGHGTQVTVSS | high polyreactivity
18 | QVHLVESGGVIVQAGGILRLSCAASGNIFTYYVMGWYRQAPGKERELVAAISRRGGSTYYADSVKGRFTISRDIAKNTVYLQMNSLKPEDTAVYYCAKKYPRDMDYWGQVTQVTVSS | high polyreactivity
19 | QVHLVESGGVLVQAGGSLRLSCAASGFILYFNAMGWYIQAPGKERELVAVNTFRSGSTYYADSVKGRFTISRDNAKNTVNLQMNSLKPEDTAVYYCNAQSVLLSLRVELREPHEYWGHGTQVTVSS | low polyreactivity
20 | QVHLVESGGVLVQAGGSLRLSCAASGIALLYYTMGWYRQAPGKERELVAAINSGGRTYYADSVKGRYTISRDNAKNTGYLQMNSLKPDDTAVYFCAAHGGADHMDYWGQGTQVTVSS | high polyreactivity
21 | QVHLVESGRGLVQAGGSLRLSCAASGSTFKIYAMGWYRPAPAKERELVAAITRGGSTNYADSVKGRFTISRDTAKKTVYLQMNSLKPEDTAVYSFAASYWYRRYGTYSYDYWGHGTQVTVSS | high polyreactivity

Row | Sequence | polyreactivity (PSR sort gate)
22 | QVHLVESGRGLVQAGGSLRLSCASSGSIFSRYAMGRYREAPGKVSELVAAISRRGGRTYYADSVKGRFTISRDYAKNTVYLQMKSLKPEVTAVYYCNDRRYNVPHPNRYDYWGQGTQVTVSS | high polyreactivity
23 | QVHLVESGRGLVQSGGSLRLSCADSGSTFATNAMGWYRQAPGKERELVAAITSRGGTYYADSVKRRFTISRDKAKNTVYLQMNSLKPEDTAVYYCNAVSRYAFDYCGQGTQVTVSS | high polyreactivity
24 | QVHLVESGVGLFQAGGSLRLSCAASGIIFRYYTMEWYIQAPGKEREVVAVITRGCSTYYADSVMGRFTISRDNAKYSVYLQMNSLKPVDTAVYFCAALRYKLPLGYWGQGTQVTVSS | high polyreactivity
25 | QVHLVESRGGLDQAGGSLRLSCAASGRTVYQYAMGRNRQAPGKERELVAAITRSGSRTYYADTVKGRFTISRDNAKNTVYLQMNSLKPEDTAVYYCAADGHGGFPIDEYYYWGQGTQVTVSS | high polyreactivity
26 | QVHLVESVGGLVQAGGILRLSCAASGFTFYSYAMGCYRQAPGNERELVAAITRSGGNTYYADSVKGRFTISRDNAKNTVYLQMNSLKPEDTAVYYCDATGKRISPSHYYCGQGTQVTVSS | high polyreactivity
27 | QVHLVESVGGLVQAGGSLRLSCAASGGIFCVYAMGWYRQAPGKERELVAAISNSDTSTSYADSVKGRFTISRDNAKNTVYLQMNCLKPEVTAVYYCNADSPSLSGDYWGQGTQVTVSS | low polyreactivity
28 | QVHLVESVGGLVQAGGSLRLSCAASGRIFYRNAMGCYRQAPGKERELVAAINTGGDGTYYADSVKGRFTISRDNAKNTVYLQMNSLKPEDTAVYYCAADRSSFYWSHGTVYGYDYWGQGTQVTVSS | low polyreactivity
29 | QVHLVETGGALVQAGGSLSISCAASGSIYHGYTMGWYRQAPGKERELVAAINSGDGSTYADSVKGRFTISRDNAKNTVYLQMNSLKQEDTAVYYCAALYAVYWPWYVREYDYWGHGTQVTVSS | low polyreactivity
30 | QVHLVETGGGLLQAGGSLRLSFAASGFTFWRYAMGWSRQAPGKESELVAAISRTGGRTYYADSLKGRFTISRDHAKNTVYLQMNSLNPEDTAVYYCNAPRGYSSTRNGYWGQGTQVTVSS | high polyreactivity
31 | QVHLVQSGGGIVQAGGSLRLSCPASGSIFGYYAMGWYRQPRGKERELVAAITGGGRTYYADSVKGRFTISRDNAKNTVYLQMNSLKPEDTGVYYCTARSTSYRSYWRDYWGQGTHVTVSS | high polyreactivity
32 | QVHRVESGGGLVQAGGSLRLSCAASGSIFSYYDLGWYRQAPGNERELVAAISWDGGDRTYADSVKGRFTISRDNAKNNVYLQMNSLKPEDSAVYYCAKNTGSYRRVNLDYWGQGTQVTVSS | low polyreactivity
33 | QVKLKESVGGLVQAGGSLRLSCAASGSISATGHMGWYRQAPGEERELVAAINFGSNTYYADSVKGLFTISRDNAINTVYLQKSGLKPEDTAVYYWAVDGWYVGPYYYWGQGTQVTVSS | high polyreactivity
34 | QVKLVESAGGLVQAGGSRRLSCAASGSIFRAYAMGWYRQAPGKESELVADISRSGGSTYYADSVKGRFTISRDNAKNNVYLQMNSLIPEDTAVYYCNRLPQYALPYRHNGYWGQGTQVTVSS | low polyreactivity
35 | QVKLVESGAGLVQAGGSLRLSCAASGIIFAQYTMGWYRQAPGKERELVAAINRNGGSTYYADSVKGRFTISRDNAKNTVYLQMNSLKPEDTAVYYCNAEALGFRYDYWGQGTQVTVSS | low polyreactivity
36 | QVKLVESGGCLVQEGGSLRLSCAASGSIFGHYVMRWYRQAPGKERELVAAINRGGSTYYADSVKGRFTISRDNAKNTVYLQMNSLKPEDTAVYYCAAGYPSWYYGYPYDSWGQGTQVTVSS | low polyreactivity
37 | QVKLVESGGGIVQAGGSLRLTCAASGSTVRLYAMGCYRQAPGKERELVAAISTRGSSTYYADSVKGRFTISRDNAKNTVYLQMNSLKPEDTAVFYCAADAYFIYSRYWYDYWGQGTQVTVSS | high polyreactivity
38 | QVKLVESGGGLDQAGGSLRLSCSASRSTFWHYAMGWYRQAPGKERELVASISGRGTSTYYADSVKGRFTISRDNAKNTVFFQMNSLKPEDTAVYYCAATKWFGAFDYWGQGTQVTVSS | low polyreactivity
39 | QVKLVESGGGLVQAGGSIRLSCAASGRIFTTYTMGWYRQAPGKERELVAAITRGDRTNYADSVKGRFTISRDNAKNTVYLQMNSLIPEDTAVYYCAAVGNWYYRDPLHSRFYYWGQGTQVTVSS | high polyreactivity
40 | QVKLVESGGGLVQAGGSLRLRCAASGSIFRFYVMGWYRQAPGKERELVAAISSGGSTDYADSVKGRFTISRDNAKNTVYLQMYSLKPEDTAVYYCGARVRTVRNTYYSWGQGTQVTVSS | high polyreactivity
41 | QVKLVESGGGLVQAGGSLRLSCAASGFIIGGYGMGWYRQAPGKERELVAVITASGGSTYYADSVKWLFTISRDNAKNTVYLQMNSLKPEDTGVYYCAARVGRYGYSQYYYWGQGTQVTVSS | high polyreactivity
